Assay results published in PMC7113306 (2020).
“And” between values parts separate entries of the source, which are not always exact repeats. Equal entries are not always repeated.

T1: ALK2-Fc (UniProt Q04771 21-123)
T1 chain: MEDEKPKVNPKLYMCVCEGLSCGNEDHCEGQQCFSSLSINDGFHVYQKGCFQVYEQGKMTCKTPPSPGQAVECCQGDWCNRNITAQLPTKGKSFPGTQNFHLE


Experiments:
Assay in all cases: SPR
[1] = molecular target: T1, ALK2-Fc
[2] = molecular target: T2, ALK1 extracellular domain (ALK1 ECD) (human, UniProt P37023 22-118)
T2 sequence (P37023 22-118): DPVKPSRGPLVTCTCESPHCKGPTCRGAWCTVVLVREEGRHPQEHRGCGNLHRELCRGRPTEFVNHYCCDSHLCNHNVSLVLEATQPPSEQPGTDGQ

[3] = molecular target: T2, ALK1 extracellular domain (ALK1 ECD); remark: listed apart in the source
[4] = molecular target: T3, ALK1-Fc (ALK1 extracellular domain-Fc fusion protein) (UniProt P37023 22-118)
T3 sequence (P37023 22-118): as above

[5] = molecular target: T3, ALK1-Fc (ALK1 extracellular domain-Fc …); remark: listed apart in the source

Row | Kd [1] | Kd [2] | koff [3] | koff [4] | Kd [5] | Binder
1 | 19.2 nM |  |  |  |  | BMP6-GF WT (protein, disulfide-linked GF-domain homodimer. The text gives no BMP6 construct, source or limits (named only in a figure), so the human mature chain is assumed.) not shown
2 |  | 0.0716 nM | 8.37e-05 s⁻¹ | 6.19e-05 s⁻¹ |  | BMP9 GF-domain (bone morphogenetic protein 9 growth factor domain) (ligand) SAGAGSHCQKTSLRVNFEDIGWDSWIIAPKEYEAYECKGGCFFPLADDVTPTKHAIVQTLVHLKFPTKVGKACCVPTKLSPISVLYKDDMGVPTLKYHYEGMSVAECGCR
3 | 86.2 nM | 0.0929 nM | 8.46e-05 s⁻¹ | 4.84e-05 s⁻¹ | 0.0392 nM and 0.0612 nM | pro-BMP9 (prodomain-bound BMP9) (complex) chain 1: KPLQSWGRGSAGGNAHSPLGVPGGGLPEHTFNLKMFLENVKVDFLRSLNLSGVPSQDKTRVEPPQYMIDLYNRYTSDKSTTPASNIVRSFSMEDAISITATEDFPFQKHILLFNISIPRHEQITRAELRLYVSCQNHVDPSHDLKGSVVIYDVLDGTDAWDSATETKTFLVSQDIQDEGWETLEVSSAVKRWVRSDSTKSKNKLEVTVESHRKGCDTLDISVPPGSRNLPFFVVFSNDHSSGTKETRLELREMISHEQESVLKKLSKDGSTEAGESSHEEDTDGHVAAGSTLARRKR chain 2: SAGAGSHCQKTSLRVNFEDIGWDSWIIAPKEYEAYECKGGCFFPLADDVTPTKHAIVQTLVHLKFPTKVGKACCVPTKLSPISVLYKDDMGVPTLKYHYEGMSVAECGCR
4 |  | 0.017 nM | 5.63e-05 s⁻¹ | 3.44e-05 s⁻¹ | 0.0187 nM and 0.0112 nM | pro-BMP10 (prodomain-bound BMP10) (complex, furin-processed; prodomain non-covalently bound to the disulfide-linked GF-domain dimer; secreted from HEK EBNA cells. Limits are from the UniProt PROPEP and CHAIN features.) chain 1: SPIMNLEQSPLEEDMSLFGDVFSEQDGVDFNTLLQSMKDEFLKTLNLSDIPTQDSAKVDPPEYMLELYNKFATDRTSMPSANIIRSFKNEDLFSQPVSFNGLRKYPLLFNVSIPHHEEVIMAELRLYTLVQRDRMIYDGVDRKITIFEVLESKGDNEGERNMLVLVSGEIYGTNSEWETFDVTDAIRRWQKSGSSTHQLEVHIESKHDEAEDASSGRLEIDTSAQNKHNPLLIVFSDDQSSDKERKEELNEMISHEQLPELDNLGLDSFSSGPGEEALLQMRSNIIYDSTARIRR chain 2: NAKGNYCKRTPLYIDFKEIGWDSWIIAPPGYEAYECRGVCNYPLAEHLTPTKHAIIQALVHLKNSQKASKACCVPTKLEPISILYLDKGVVTYKFKYEGMAVSECGCR
5 |  | 0.0557 nM | 8.5e-05 s⁻¹ | 5.31e-05 s⁻¹ |  | BMP10 GF-domain (bone morphogenetic protein 10 growth factor domain) (ligand) NAKGNYCKRTPLYIDFKEIGWDSWIIAPPGYEAYECRGVCNYPLAEHLTPTKHAIIQALVHLKNSQKASKACCVPTKLEPISILYLDKGVVTYKFKYEGMAVSECGCR
